The target of experiment [1] is T1, DD1α-HA (HA-tagged DD1α expressed in 293T cells or on Jurkat cells) (human, UniProt Q9H7M9 33-311).
T1 construct: also called Jurkat/DD1α; DD1α-transfected Jurkat cells; not shown: HA tag
The experiment in a line: competition with DD1α-Ig and PD-1-Ig for binding to Jurkat cells transfected with DD1α, flow cytometry.

Experiment [2] has as its target mouse PD-1 (endogenous, on mouse CD4+ and CD8+ T cells) (mouse) (UniProt Q02242). In words: cell-based or functional assay.

Chain of mouse PD-1 (endogenous, on mouse CD4+ and CD8+ T cells) (mouse) (Q02242 25-288): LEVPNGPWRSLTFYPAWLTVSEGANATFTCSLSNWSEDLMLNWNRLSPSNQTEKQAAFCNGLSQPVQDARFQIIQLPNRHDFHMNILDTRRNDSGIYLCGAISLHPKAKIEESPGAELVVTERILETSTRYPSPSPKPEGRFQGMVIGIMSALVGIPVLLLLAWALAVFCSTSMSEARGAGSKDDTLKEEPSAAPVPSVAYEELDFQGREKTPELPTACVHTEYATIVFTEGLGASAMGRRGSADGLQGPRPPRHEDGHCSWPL

B1: anti-DD1α monoclonal antibody 2B11 (antibody, V domains shown)
VH: EVQLVESGGDLVKPGGSLKLSCAASGFTFSNYGMSWVRQTPDKRLEYVATINSGGSYTYYPDSVKGRFTISRDNAKTTLYLQMSSLKSEDTAMYYCARIYDYDGDYYALDYWGQGTSVTVSS
VL: DVLMTQTPLSLPVSLGDQASISCRSSQSIVHTNGNTYLEWYLQKPGQSPKLLIYKVSNRFSGVPDRFSGSGSGTDFTLKISRVEAEDLGVYYCFQGSHVPWTFGGGTKLEIK
notes: Purified from hybridoma; also called DD1α-specific Ab 2B11
In the case of B1, the binding result in experiment [1] is given as “binds”.

B2: mouse DD1α (endogenous, on mouse T cells or CD11b+Gr-1+ MDSCs) (receptor, UniProt Q9D659 33-308, looked up)
chain: FKVTTPYSLYVCPEGQNATLTCRILGPVSKGHDVTIYKTWYLSSRGEVQMCKEHRPIRNFTLQHLQHHGSHLKANASHDQPQKHGLELASDHHGNFSITLRNVTPRDSGLYCCLVIELKNHHPEQRFYGSMELQVQAGKGSGSTCMASNEQDSDSITAAALATGACIVGILCLPLILLLVYKQRQVASHRRAQELVRMDSNTQGIENPGFETTPPFQGMPEAKTRPPLSYVAQRQPSESGRYLLSDPSTPLSPPGPGDVFFPSLDPVPDSPNSEAI
In experiment [2], B2 gave a CFSE- and Far Red-double-positive events: DD1α-/- CD11b+Gr-1+ MDSCs with PD-1-/- CD8+ T cells of 1.36%; a CFSE- and Far Red-double-positive events: DD1α-null CD11b+Gr-1+ MDSCs with Wt CD8+ T cells of 7.1%; a CFSE- and Far Red-double-positive events: Wt CD11b+Gr-1+ MDSCs with PD-1-/- CD8+ T cells of 6.59%; a CFSE- and Far Red-double-positive events: Wt CD11b+Gr-1+ MDSCs with Wt CD8+ T cells of 22%. In experiment [2], this molecule had a proliferation of CD4+ T cells (CFSE dilution) with DD1α-/- CD11b+Gr-1high MDSCs of 70% and a proliferation of CD8+ T cells (CFSE dilution) with DD1α-/- CD11b+Gr-1high MDSCs of 63%.
